How the values were obtained:
[1] = molecular target: rat NCAM F3 modules 1-2 (rat) (UniProt P13596); experiment: SPR (BIAcore2000), soluble FGFR Ig2 on immobilized NCAM F3 modules 1-2
[2] = molecular target: Ig2 module of mouse FGFR1 (IIIc isoform) (mouse) (UniProt P16092); experiment: SPR (BIAcore2000), soluble NCAM F3 modules 1-2 on immobilized FGFR Ig2
Sequence of Ig2 module of mouse FGFR1 (IIIc isoform) (mouse) (P16092 other isoform, or with tags, fused parts or gaps limits assumed, form in doubt): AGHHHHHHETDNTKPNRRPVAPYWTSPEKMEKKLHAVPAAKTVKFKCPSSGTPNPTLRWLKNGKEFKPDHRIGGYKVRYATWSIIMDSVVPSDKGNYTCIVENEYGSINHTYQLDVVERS

Sequence of rat NCAM F3 modules 1-2 (rat) (P13596 other isoform, or with tags, fused parts or gaps limits assumed, form in doubt): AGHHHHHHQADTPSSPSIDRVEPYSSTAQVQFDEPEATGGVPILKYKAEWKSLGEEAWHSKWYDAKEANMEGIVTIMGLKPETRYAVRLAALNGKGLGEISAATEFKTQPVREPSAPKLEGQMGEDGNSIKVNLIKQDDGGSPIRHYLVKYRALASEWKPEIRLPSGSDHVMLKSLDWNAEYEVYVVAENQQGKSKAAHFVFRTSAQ

“Ig2 module of mouse FGFR1 (IIIc isoform) (from UniProt P16092 140-251) (receptor)” gave a Kd [1] of 35 µM.
With “rat NCAM F3 modules 1-2 (from UniProt P13596 507-705) (receptor)” the Kd [2] was 12 µM.

— US20120141451A1
